Data: patent US20060094013

T1: peptide p300 [84-93 (S89A)], Q09472
T1 chain: LLRSGASPNL


What was measured:
[1] = molecular target: GST-Syntide 2 [GST: P08515]
[2] = molecular target: SIK1 peptide wherein serine at position 577 is substituted with alanine (on GST as carrier protein) [GST: P08515]
[3] = molecular target: SIK1 substrate mutant (R574/575A) wherein arginines at positions 574 and 575 are substituted with alanines
[4] = molecular target: SIK1 substrate mutant (R574A) wherein arginine at position 574 is substituted with alanine
[5] = molecular target: SIK1 substrate mutant (R575A) wherein arginine at position 575 is substituted with alanine
[6] = molecular target: wild-type SIK1 peptide not phosphorylated by PKA (on GST as carrier protein) [GST: P08515]
Chain of wild-type SIK1 peptide not phosphorylated by PKA (on GST as carrier protein) [GST: P08515] (P08515 whole entry, looked up): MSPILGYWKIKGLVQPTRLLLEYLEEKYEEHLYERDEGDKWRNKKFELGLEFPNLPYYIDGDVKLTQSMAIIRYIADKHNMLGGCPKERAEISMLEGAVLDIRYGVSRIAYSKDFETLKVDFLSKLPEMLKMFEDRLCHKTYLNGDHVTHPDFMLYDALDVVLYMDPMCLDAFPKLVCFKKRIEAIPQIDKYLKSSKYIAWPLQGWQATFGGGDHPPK

[7] = molecular target: T1, peptide p300 [84-93 (S89A)], Q09472

Chain of GST-Syntide 2 [GST: P08515] (P08515 whole entry, looked up): as above
Chain of SIK1 peptide wherein serine at position 577 is substituted with alanine (on GST as carrier protein) [GST: P08515] (P08515 whole entry, looked up): as above

| Protein | protein-phosphorylating activity (32P intake, SDS-PAGE) [1] | phosphorylation of the substrate (32P) [2] | phosphorylation of the substrate (32P) [3] | phosphorylation of the substrate (32P) [4] | phosphorylation of the substrate (32P) [5] | phosphorylation of the substrate (32P) [6] | enzyme activity of SIK (phosphorylation of Syntide 2) [7] | phosphorylation by SIK [7] |
| --- | --- | --- | --- | --- | --- | --- | --- | --- |
| GST-rat SIK1 (protein) MVIMSEFSAVPTGTGQGQQKPLRVGFYDVERTLGKGNFAVVKLARHRVTKTQVAIKIIDKTRLDSSNLEKIYREVQLMKLLNHPNIIKLYQVMETKDMLYIVTEFAKNGEMFDYLTSNGHLSENEARKKFWQILSAVEYCHNHHIVHRDLKTENLLLDGNMDIKLADFGFGNFYKPGEPLSTWCGSPPYAAPEVFEGKEYEGPQLDIWSLGVVLYVLVCGSLPFDGPNLPTLRQRVLEGRFRIPFFMSQDCETLIRRMLVVDPAKRITIAQIRQHRWMQADPTLLQQDDPAFSMQGYTSNLGDYNEQVLGIMQALGIDRQRTVESLQNSSYNHFAAIYYLLLERLREHRSTQPSSRATPAPARQPQLRNSDLSSLEVPQEILPCDPFRPSLLCPQPQALAQSVLQAEIDCDLHSSLQPLFFPLDTNCSGVFRHRSISPSSLLDTAISEEARQGPSLEEEQEVQEPLPGSTGRRHTLAEVSTHFSPLNPPCIIVSSSAAVSPSEGTSSDSCLPFSASEGPAGLGGGLATPGLLGTSSPVRLASPFLGSQSATPVLQSQAGLGATVLPPVSFQEGRRASDTSLTQGLKAFRQQLRKNARTKGFLGLNKIKGLARQVCQSSIRGSRGGMSTFHTPAPSSGLQGCTASSREGRSLLEEVLHQQRLLQLQHHSAVSSDYQQAPQLSPVPYVLTPCDGLLVSGIPLLPTPLLQPGMSPVASAAQLLDAHLHISAGPVALPTGPLPQCLTRLSPSCDPAGLPQGDCEMEDLTSGQRGTFVLVQ | GST-rat SIK1 and GST-rat SIK1 (K56M) were subjected to the same experiment. Consequently, the same results were obtained. | the mutants S577A, R574A, and R574/575A were not phosphorylated | the mutants S577A, R574A, and R574/575A were not phosphorylated | the mutants S577A, R574A, and R574/575A were not phosphorylated | the mutant R575A was phosphorylated much more efficiently than the case of the wild-type SIK1 | the wild-type SIK1 was phosphorylated |  |  |
| GST-mSIK2 (protein) MVMADGPRHLQRGPVRVGFYDIEGTLGKGNFAVVKLGRHRTTKTEVAIKIIDKSQLDAVNLEKIYREVQIMKMLDHPHIIKLYQVMETKSMLYLVTEYAKNGEIFDYLANHGRLNESEARRKFWQILSAVDYCHGRKVVHRDLKAENLLLDNNMNIKIADFGFGNFFKTGELLATWCGSPPYAAPEVFEGQQYEGPQLDIWSMGVVLYVLVCGALPFDGPTLPILRQRVLEGRFRIPYFMSEDCEHLIRRMLVLDPSKRLSIAQIKEHKWMLIEVPVQRPILYPQEQENEPSIGEFNEQVLRLMHSLGIDQQKTVESLQNKSYNHFAAIYFLLVERLKSHRSSFPVEQRLDGRQRRPSTIAEQTVAKAQTVGLPVTLHPPNVRLMRSTLLPQASNVEAFSFPTSSCQAEAAFMEEECVDTPKVNGCLLDPVPPVLVRKGCQSLPSSMMETSIDEGLETEGEAEEDPSQAFEAFQATRSGQRRHTLSEVTNQLVVMPGAGKMFSMSDNPSLESVDSEYDMGSAQRDLNFLEDSPSLKDIMLANQPSPRMTSPFISLRPANPAMQALSSQKREAHNRSPVSFREGRRASDTSLTQGIVAFRQHLQNLARTKGILELNKVQLLYEQMGSNADPTLTSTAPQLQDLSSSCPQEEISQQQESVSSLSASMHPQLSPQQSLETQYLQHRLQKPNLLPKAQSPCPVYCKEPPRSLEQQLQEHRLQQKRLFLQKQSQLQAYFNQMQIAESSYPGPSQQLALPHQETPLTSQQPPSFSLTQALSPVLEPSSEQMQFSSFLSQYPEMQLQPLPSTPGPRAPPPLPSQLQQHQQPPPPPPPPPPQQPGAAPTSLQFSYQTCELPSTTSSVPNYPASCHYPVDGAQQSNLTGADCPRSSGLQDTASSYDPLALSELPGLFDCEMVEAVDPQHNGVVSCLARET | wild-type GST-mSIK2 has an auto-phosphorylating activity and an activity of phosphorylating GST-Syntide 2 |  |  |  |  |  | the unphosphorylated peptide p300 wherein serine at position 89 is substituted with alanine inhibits the enzyme activity of SIK | a peptide wherein serine at position 89 in p300 is substituted with alanine becomes unphosphorylated |
